Test results from paper PMC11488486.

How the values were obtained:
[1] = target: UCHL1 R178Q (from pGEX-6p-1) (human) (UniProt P09936)
[2] = target: UCHL1, wild type (from pGEX-6p-1) (human) (UniProt P09936)

Question: What does the source list for Ub-Rhodamine?
Answer: KM of UCHL1-catalyzed hydrolysis of Ub-Rho (Michaelis-Menten kinetics) [1]: 0.17 µM; KM of UCHL1-catalyzed hydrolysis of Ub-Rho (Michaelis-Menten kinetics) [2]: 0.03 µM
